# Read-outs that look alike come from different tables or passages of the source.
# B1: Anti-SIRPα antibody C25 (antibody, V domains shown)
# VH: EVQLQQSGAELVKPGASVKLSCTASGFNIKDYYMHWVKQRTEQGLEWIGRIDPEDGETKYAPKFQGKATITADTSSNTAYLQLSSLTSEDTAVYYCDRGLAYWGQGTLVTVSA
# VL: QIVLTQSPAIMSASPGEKVTLTCSASSSVSSSYLYWYQQKPGSSPKLWIYSTSNLASGVPARFSGSGSGTSYSLTISSMEAEDAASYFCHQWSSYPYTFGGGTKLEIK
# notes: Mouse variable regions; also called 025c; 025
# B2: Anti-PDL1/SIRPα bispecific antibody ES019-020 (bispecific antibody, not shown: small tags and cut ends; a dimerising Fc or GST)
# light (part 1 of 2): QIVLTQSPAIMSASPGEKVTLTCSASSSVSSSYLYWYQQKPGSSPKLWIYSTSNLASGVPARFSGSGSGTSYSLTISSMEAEDAASYFCHQWSSYPYTFGGGTKLEIK
# light (part 2 of 2): EVQVVESGGGLVQSGGSLKLSCAGSGFTESAGFMVWHRQVPGKERELVALIATPSGSTNYADSVKGRFTISRDNGKNTVYLQMNSLKPEDTAVYYCNIRGYWGQGTLVTVSS
# heavy: EVQLQQSGAELVKPGASVKLSCTASGFNIKDYYMHWVKQRTEQGLEWIGRIDPEDGETKYAPKFQGKATITADTSSNTAYLQLSSLTSEDTAVYYCDRGLAYWGQGTLVTVSA
# B3: Anti-PDL1/SIRPα bispecific antibody ES019-024 (bispecific antibody, not shown: a dimerising Fc or GST)
# light: QIVLTQSPAIMSASPGEKVTLTCSASSSVSSSYLYWYQQKPGSSPKLWIYSTSNLASGVPARFSGSGSGTSYSLTISSMEAEDAASYFCHQWSSYPYTFGGGTKLEIK
# heavy (part 1 of 2): EVQLQQSGAELVKPGASVKLSCTASGFNIKDYYMHWVKQRTEQGLEWIGRIDPEDGETKYAPKFQGKATITADTSSNTAYLQLSSLTSEDTAVYYCDRGLAYWGQGTLVTVSA
# heavy (part 2 of 2): EVQVVESGGGLVQSGGSLKLSCAGSGFTESAGFMVWHRQVPGKERELVALIATPSGSTNYADSVKGRFTISRDNGKNTVYLQMNSLKPEDTAVYYCNIRGYWGQGTLVTVSS
# B4: Anti-SIRPα antibody C35 (antibody, V domains shown)
# VH: QIQLVQSGPELRKPGETVKISCKASGYSFTNYAMNWVKQAPGKVLKWMGFINTYTGEPTYADDFKGRFAFSLETSASTAYLQINNLKNEDTATYFCTRTRGYYDFDGGAFDYWGQGTSLTVSS
# VL: DIVMTQSQKFMSTSIGDRVSVTCKASQNVGTHLAWYQQKPGQSPKALIFSASYRYIGVPDRFTGSGSGTDFTLTITNVQSEDLAEYFCQQYNTYPLTFGAGTKLELK
# notes: Tested as purified chimeric antibody; also called 035
# B5: Reference anti-SIRPα antibody HEFLB (antibody, human IgG4, V domains shown)
# VH: EVQLVQSGAEVKKPGESLRISCKASGYSFTSYWVHWVRQMPGKGLEWMGNIDPSDSDTHYSPSFQGHVTLSVDKSISTAYLQLSSLKASDTAMYYCVRGGTGTLAYFAYWGQGTLVTVSS
# VL: DVVMTQSPLSLPVTLGQPASISCRSSQSLVHSYGNTYLYWFQQRPGQSPRLLIYRVSNRFSGVPDRFSGSGSGTDFTLKISRVEAEDVGVYYCFQGTHVPYTFGGGTKVEIK
# Assays:
# [1] = target: T1, Full length human SIRPα v1 with beta-gal fragment (ED) at its C-terminal, in K562 cells (human, UniProt P78324 31-504); assay: cell-based or functional assay
# [2] = target: T1, Full length human SIRPα v1 with …; assay: cell-based or functional assay; remark: listed apart in the source
# Human SIRPα v2 = target: T2, Human SIRPα v2 (human); assay: SPR (Biacore), 1:1 binding model
# T2 construct: also called human SIRPα v2 (antigen of the Biacore assay)
# Protocol: The humanized antibodies were characterized for binding affinity against human SIRPα v1, human SIRPα v2 using Surface Plasmon Resonance technology (Biacore system). The association and dissociation curves were fit with 1:1 binding model, and the Ka/Kd/KD values for each antibody were calculated.
# [3] = target: T3, human SIRPα v1 on CHOK1 cells (human, UniProt P78324 31-504); assay: FACS, CHOK1 cells stably expressing human SIRPα v1
# T3 construct: whole, on cells; also called CHOK1-hSIRPα v1; cell surface human SIRPα v1
# Description: (§1) Binding activity of the purified chimeric antibodies against human SIRPα variants was detected by FACS assay using CHOK1 cells or 293F cells stably expressing human SIRPα v1 and CHOK1 cells stably expressing human SIRPα v2. […] EC₅₀ and top signal calculated using GraphPad Prism9.0.
# [4] = target: T4, human SIRPα v2 on CHOK1 cells (human, UniProt P78324 31-504); assay: FACS, CHOK1 cells stably expressing human SIRPα v2
# T4 construct: whole, on cells; also called CHOK1-hSIRPα v2; cell surface human SIRPα v2
# Description: as §1
# [5] = target: T3, human SIRPα v1 on CHOK1 cells; assay: FACS, CHOK1 cells stably expressing human SIRPα v1; remark: listed apart in the source
# [6] = target: T4, human SIRPα v2 on CHOK1 cells; assay: FACS, CHOK1 cells stably expressing human SIRPα v2; remark: listed apart in the source
# [7] = target: T5, mFc tagged human SIRPα v1 ECD recombinant protein (human, UniProt P78324 31-373); assay: competitive ELISA; row antibody in excess in solution, coated mAb 025c
# T5 construct: extracellular domain; not shown: mouse Fc tag
# Protocol: (§2) Competitive ELISA assay was used for epitope binning of purified chimeric antibodies. Briefly excessive competitor antibody and mFc tagged human SIRPα v1 ECD recombinant protein were co-incubated with ELISA microplate coated antibody. After washing, HRP labeled anti-mouse Fc 2nd antibody (Sigma) was added and incubated at 37° C. for 1 hour. Then, 100 μl/well of TMB solution (Biotechnology) was added. After incubation for 15 minutes at room temperature, the reaction was stopped by the addition of 50 μl of 1N HCl. OD 450 nm was read. Competition ratio was calculated. The antibodies that can compete each other for binding to SIRPα may have related binding epitopes.
# [8] = target: T5, mFc tagged human SIRPα v1 ECD …; assay: competitive ELISA; row antibody in excess in solution, coated mAb 042c
# Protocol: as §2
# [9] = target: T5, mFc tagged human SIRPα v1 ECD …; assay: competitive ELISA; row antibody in excess in solution, coated mAb hu1H9G4
# Protocol: as §2
# [10] = target: T6, human SIRPα v1 ECD recombinant protein (human, UniProt P78324 31-373); assay: competitive ELISA, plate-coated human SIRPα v1 ECD; blocked ligand: mFc tagged human CD47 ECD
# T6 construct: extracellular domain; Coated on the ELISA plate
# Protocol: (§3) Competitive ELISA assay was used to determine whether the purified chimeric antibodies can block CD47 and SIRPα interaction. Briefly, antibody and mFc tagged human CD47 ECD recombinant protein were co-incubated with ELISA microplate coated human SIRPα v1 ECD or human SIRPα v2 ECD recombinant protein. The concentration of soluble ECD of CD47 is 25 nM, and the concentration of soluble ECD of SIRPα is 20 nM. After washing, HRP labeled anti-mouse Fc 2nd antibody (Sigma) was added and incubated at 37° C. for 1 hour. Then, 100 μl/well of TMB solution (Biotechnology) was added. After incubation for 15 minutes at room temperature, the reaction was stopped by the addition of 50 μl of 1N HCl. OD 450 nm was read. Blocking ratio was determined by blockade of human SIRPα ECD recombinant protein binding to ELISA microplate coated human CD47 ECD recombinant protein. All antibodies as tested can block interaction between human CD47 and different human SIRPα variants.
# [11] = target: T7, human SIRPα v2 ECD recombinant protein (human); assay: competitive ELISA, plate-coated human SIRPα v2 ECD; blocked ligand: mFc tagged human CD47 ECD
# T7 construct: extracellular domain; Coated on the ELISA plate
# Protocol: as §3
# [12] = target: T6, human SIRPα v1 ECD recombinant protein; assay: competitive ELISA, plate-coated human SIRPα v1 ECD; blocked ligand: mFc tagged human CD47 ECD; remark: listed apart in the source
# Protocol: as §3
# (§4) The humanized antibodies were tested for the ability to block CD47 and SIRPα interaction with competitive ELISA assay (refer to methods described above).
# [13] = target: T7, human SIRPα v2 ECD recombinant protein; assay: competitive ELISA, plate-coated human SIRPα v2 ECD; blocked ligand: mFc tagged human CD47 ECD; remark: listed apart in the source
# Protocol: as §3, §4
# [14] = target: T6, human SIRPα v1 ECD recombinant protein; assay: competitive ELISA, plate-coated human SIRPα v1 ECD; blocked ligand: mFc tagged human CD47 ECD; remark: listed apart in the source
# Protocol: as §3, with “ECD” for “ECD or human SIRPα v2 ECD”, “protein.” for “protein. The concentration of soluble ECD of CD47 is 25 nM, and the concentration of soluble ECD of SIRPα is 20 nM.”, “protein.” for “protein. All antibodies as tested can block interaction between human CD47 and different human SIRPα variants.”
# [15] = target: T3, human SIRPα v1 on CHOK1 cells; assay: competitive FACS, CHOK1 cells stably expressing human SIRPα v1; blocked ligand: mFc tagged human CD47 ECD
# Protocol: (§5) Competitive FACS assay was also set up to further compare the blocking activity of the humanized antibodies and some known anti-SIRPα antibodies. Briefly antibody and mFc tagged human CD47 ECD recombinant protein were co-incubated with CHOK1 cells stably expressing human SIRPα v1 or human SIRPα v2. After washing, dye labeled anti-mouse Fc 2nd antibody (Sigma) was added and incubated at 37° C. for 1 hour. Fluorescence intensity was detected. Blocking ratio was determined by blockade of human CD47 ECD recombinant protein binding to SIRPα expressed CHOK1 cells.
# [16] = target: T4, human SIRPα v2 on CHOK1 cells; assay: competitive FACS, CHOK1 cells stably expressing human SIRPα v2; blocked ligand: mFc tagged human CD47 ECD
# Protocol: as §5
# human PDL1 on cells [17] = target: T8, human PDL1 on cells (human, UniProt Q9NZQ7 19-290); assay: cell-based or functional assay
# [18] = target: human PDL1 protein (Octet assay) (human, UniProt Q9NZQ7 19-238); assay: Octet; antibody on sensor, PDL1 protein in solution
# Protocol: The Anti-PDL1/SIRPα bispecific protein were characterized for binding affinity against human PDL1 using Octet assay (ForeBio) according to manufacturer's manual, separately. Briefly, the antibodies were coupled on sensors and then the sensors were dipped into PDL1 protein gradients (start at 200 nM, with 2-fold dilution and totally 8 doses). Their binding responses were measured in real-time and results were fit globally.
# human PDL1 on cells [19] = target: T8, human PDL1 on cells; assay: FACS, Raji cells overexpressing human PDL1, anti-human Fc-PE, MFI
# Protocol: Approximately 100,000 Raji cells overexpressing human PDL1 were washed with wash buffer and incubated with 100 ul serial dilution of PDL1/SIRPα bispecific protein for 30 minutes on ice. Cells were then washed twice with wash buffer and incubated with 100 ul of anti-human Fc-PE for 30 minutes on ice. Cells were then washed twice with wash buffer and analyzed on a FACS Canto II analyzer (BD Biosciences). […] The bispecific antibodies ES019-025, ES019-026 bound Raji/hPDL1 similar to anti-PDL1 monoclonal antibody C71 whereas ES019-020, ES019-024 bound Raji/hPDL1 to a lesser extent relative to anti-PDL1, C71.
# [20] = target: T9, His tagged human SIRPα v1 ECD (human, UniProt P78324 31-373); assay: HDX-MS
# T9 construct: extracellular domain; not shown: His tag
# T9 sequence (P78324 31-373): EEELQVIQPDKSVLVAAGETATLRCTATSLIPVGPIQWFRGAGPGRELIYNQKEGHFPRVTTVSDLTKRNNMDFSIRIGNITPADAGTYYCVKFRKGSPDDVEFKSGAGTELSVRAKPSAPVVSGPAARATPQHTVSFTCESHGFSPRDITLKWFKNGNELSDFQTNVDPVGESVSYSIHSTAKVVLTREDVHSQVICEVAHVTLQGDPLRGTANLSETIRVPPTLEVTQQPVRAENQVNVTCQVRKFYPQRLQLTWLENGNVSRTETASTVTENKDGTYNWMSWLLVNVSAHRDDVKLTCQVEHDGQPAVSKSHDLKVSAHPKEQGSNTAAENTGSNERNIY
# T8 sequence (Q9NZQ7 19-290): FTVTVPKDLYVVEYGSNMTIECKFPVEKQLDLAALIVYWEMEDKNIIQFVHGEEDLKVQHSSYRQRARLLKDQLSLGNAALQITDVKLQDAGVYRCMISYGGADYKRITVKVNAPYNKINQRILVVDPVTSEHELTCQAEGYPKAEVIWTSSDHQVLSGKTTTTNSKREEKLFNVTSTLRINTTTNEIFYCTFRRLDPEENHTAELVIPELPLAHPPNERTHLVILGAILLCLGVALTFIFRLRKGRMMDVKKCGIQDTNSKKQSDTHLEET
# T3 sequence (P78324 31-504): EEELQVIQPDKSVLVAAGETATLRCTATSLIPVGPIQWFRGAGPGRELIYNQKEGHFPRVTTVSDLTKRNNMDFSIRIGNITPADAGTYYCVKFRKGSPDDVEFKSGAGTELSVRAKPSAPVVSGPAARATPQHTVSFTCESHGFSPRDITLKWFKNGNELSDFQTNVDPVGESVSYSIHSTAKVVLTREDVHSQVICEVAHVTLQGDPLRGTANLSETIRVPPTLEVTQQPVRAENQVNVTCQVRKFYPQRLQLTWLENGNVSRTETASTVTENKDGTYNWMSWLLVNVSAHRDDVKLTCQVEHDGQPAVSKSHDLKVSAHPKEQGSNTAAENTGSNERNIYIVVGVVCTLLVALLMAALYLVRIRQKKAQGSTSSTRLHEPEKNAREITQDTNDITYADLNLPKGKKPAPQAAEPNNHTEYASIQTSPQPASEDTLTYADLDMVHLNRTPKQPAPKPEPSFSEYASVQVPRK
# T1 sequence (P78324 31-504): as above
# Chain of human PDL1 protein (Octet assay) (Q9NZQ7 19-238 limits assumed): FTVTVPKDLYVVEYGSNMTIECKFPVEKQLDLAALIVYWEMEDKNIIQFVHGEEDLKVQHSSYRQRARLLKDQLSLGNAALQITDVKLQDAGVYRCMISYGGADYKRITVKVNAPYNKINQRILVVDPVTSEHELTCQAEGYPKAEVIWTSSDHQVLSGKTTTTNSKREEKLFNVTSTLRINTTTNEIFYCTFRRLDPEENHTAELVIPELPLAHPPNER
# T6 sequence (P78324 31-373): as the sequence (P78324 31-373) above
# T5 sequence (P78324 31-373): as above
# T4 sequence (P78324 other isoform, or with tags, fused parts or gaps limits assumed): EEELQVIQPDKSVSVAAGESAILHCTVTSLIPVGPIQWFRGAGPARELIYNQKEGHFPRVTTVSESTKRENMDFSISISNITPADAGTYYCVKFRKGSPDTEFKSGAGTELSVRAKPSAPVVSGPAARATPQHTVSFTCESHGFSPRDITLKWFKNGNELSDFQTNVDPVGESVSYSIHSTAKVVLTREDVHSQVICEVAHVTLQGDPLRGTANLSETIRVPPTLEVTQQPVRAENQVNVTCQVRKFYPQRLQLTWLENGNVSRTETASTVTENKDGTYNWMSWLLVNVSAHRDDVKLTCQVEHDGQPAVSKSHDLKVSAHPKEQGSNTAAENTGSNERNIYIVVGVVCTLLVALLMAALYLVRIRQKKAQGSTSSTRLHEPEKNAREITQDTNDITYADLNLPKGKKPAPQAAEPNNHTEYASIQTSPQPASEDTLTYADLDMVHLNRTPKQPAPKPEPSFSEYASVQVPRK
binder,measurement,setting,value
B1,IC50 (SHP-1 recruitment blocking),[1],0.28 nM
same,TOP blocking (SHP-1 recruitment),[1],84.5%
same,IC50 (SHP-1 recruitment blocking),[2],0.08 nM
same,TOP blocking (SHP-1 recruitment),[2],87%
same,Kd,Human SIRPα v2,1.69 nM
same,koff,Human SIRPα v2,0.00254 s⁻¹
same,kon,Human SIRPα v2,1.51e+06 M⁻¹ s⁻¹
same,EC50,[3],1.49 nM
same,TOP MFI,[3],77600 MFI
same,EC50,[4],1.34 nM
same,TOP MFI,[4],51600 MFI
same,EC50,[5],1.22 nM
same,TOP MFI,[5],64700 MFI
same,EC50,[6],0.99 nM
same,TOP MFI,[6],53000 MFI
same,% Competition,[7],93.5%
same,% Competition,[8],19.1%
same,% Competition,[9],15.3%
same,IC50,[10],2.12 nM
same,TOP blocking,[10],96.5%
same,IC50,[11],2.21 nM
same,TOP blocking,[11],96.5%
same,IC50,[12],2.03 nM
same,TOP blocking,[12],97.5%
same,IC50,[13],1.86 nM
same,TOP blocking,[13],98.6%
same,IC50 (read off the curve),[14],~2 nM
same,IC50,[15],0.4 nM
same,TOP blocking,[15],97.6%
same,IC50,[16],0.63 nM
same,TOP blocking,[16],99.7%
B2,EC50 (read off the curve),human PDL1 on cells [17],~3 nM
same,Kd,[18],5.54 nM
same,koff,[18],0.00509 s⁻¹
same,kon,[18],918000 M⁻¹ s⁻¹
same,EC50 (read off the curve),human PDL1 on cells [19],~0.6 nM
B3,EC50 (read off the curve),human PDL1 on cells [17],~2 nM
same,Kd,[18],6.56 nM
same,koff,[18],0.00603 s⁻¹
same,kon,[18],920000 M⁻¹ s⁻¹
same,EC50 (read off the curve),human PDL1 on cells [19],~0.6 nM
B4,IC50 (read off the curve),[14],~2 nM
B5,binding result,[20],binds

# Reference: patent US20240336686A1 (ELPISCIENCE SUZHOU BIOPHARMA, published 2024)
